Our source for the stoichiometry N values is doi:10.1101/2022.09.25.509378.

Experiment [1] has as its target bacteriophage λ terminase protomer (TerL•TerS2) (bacteriophage λ) (UniProt P03708). Kind of experiment: SAXS.
The target is the same in experiment [2]. Kind of experiment: AUC.
Experiment [3] has the same target. Kind of experiment: native MS.
Experiment [4] has the same target. The experiment can be described thus: AUC. This is another data set of the same source.
The target is the same in experiment [5]. The experiment can be described thus: cryo-EM 2D class averages.

For “bacteriophage λ terminase protomer (TerL•TerS2) (from UniProt P03708 1-641; P03707 1-181) (complex)”, the stoichiometry N is 4.4 protomers in experiment [1]; 4.5 S in experiment [2]; 5 protomers in experiment [3]; 3.3 to 4.4 protomers in experiment [4]; 5 in experiment [5].
